Data as given in CN111100204A.

Tests used:
[1] = target: T1, 人CD20蛋白 (human CD20) (human) (UniProt P11836); experiment: indirect ELISA, recombinant human CD20 coated, rabbit anti-human IgG Fc-HRP
T1 sequence (looked up): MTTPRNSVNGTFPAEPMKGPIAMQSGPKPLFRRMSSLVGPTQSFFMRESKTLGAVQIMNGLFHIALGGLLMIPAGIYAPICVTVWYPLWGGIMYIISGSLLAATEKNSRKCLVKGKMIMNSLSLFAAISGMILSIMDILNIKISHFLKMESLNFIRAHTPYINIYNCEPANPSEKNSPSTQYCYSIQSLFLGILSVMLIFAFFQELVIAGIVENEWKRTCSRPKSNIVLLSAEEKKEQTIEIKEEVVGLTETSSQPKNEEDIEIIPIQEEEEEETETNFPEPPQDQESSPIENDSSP

[2] = target: T1, 人CD20蛋白 (human CD20) (human); experiment: SPR (Biacore), antibody captured on anti-human capture CM5 chip, antigen as analyte from 10 nM, 1:1 kinetic model

EC50 [1]: 0.0256 µg/mL | Kd [2]: 0.0218 nM
B1: 人源化抗体HB12 (humanized anti-CD20 antibody HB12) (antibody, part only; not given: IgG1 and kappa constant regions, human IgG1, V domains shown, part only)
VH: QVQLVQSGSELKKPGASVKVSCKASSYMHAVGMNWVKQAPGQGFEWMGWIYADSGTGGVTYVKGIIPTYAQGFTGRFVFSLDTSVSTAYLQISSLKAEDTATYYCDYYDGLYGMDVYGAGSFWGQGTTVTVSS
